# Results as given in article PMC9482650, “Quantitative fragmentomics allow affinity mapping of interactomes” (Nature Communications, 2022).
# T1: APBA1_1, Q02410
# T1 sequence (Q02410 651-752, limits assumed, looked up): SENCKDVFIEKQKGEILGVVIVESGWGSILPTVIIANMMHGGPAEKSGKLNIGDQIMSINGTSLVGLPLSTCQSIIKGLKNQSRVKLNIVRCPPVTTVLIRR
# T2: APBA1_2, Q02410
# T2 sequence (Q02410 742-832, limits assumed, looked up): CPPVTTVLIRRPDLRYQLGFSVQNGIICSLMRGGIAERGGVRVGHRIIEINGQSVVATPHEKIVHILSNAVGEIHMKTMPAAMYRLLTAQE
# T3: GRIP1_2, Q9Y3R0
# T3 sequence (Q9Y3R0 145-248, limits assumed, looked up): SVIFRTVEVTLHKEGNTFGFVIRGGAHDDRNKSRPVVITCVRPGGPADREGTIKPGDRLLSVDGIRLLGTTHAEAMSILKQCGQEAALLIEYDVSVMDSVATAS
# T4: GRIP1_3, Q9Y3R0
# T4 sequence (Q9Y3R0 247-346, limits assumed, looked up): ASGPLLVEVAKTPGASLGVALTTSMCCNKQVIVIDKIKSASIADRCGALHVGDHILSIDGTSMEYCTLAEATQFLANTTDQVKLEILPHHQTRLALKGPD
# T5: GRIP1_4, Q9Y3R0
# T5 sequence (Q9Y3R0 467-571, limits assumed, looked up): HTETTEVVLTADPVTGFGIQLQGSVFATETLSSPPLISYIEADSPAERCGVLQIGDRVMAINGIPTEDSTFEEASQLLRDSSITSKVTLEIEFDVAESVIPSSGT
# T6: HTRA4, P83105
# T6 sequence (P83105 378-476, limits assumed, looked up): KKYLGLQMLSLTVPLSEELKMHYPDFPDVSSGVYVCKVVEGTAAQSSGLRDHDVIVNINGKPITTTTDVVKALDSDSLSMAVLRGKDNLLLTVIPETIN
# T7: LIN7A, O14910
# T7 sequence (O14910 103-200, limits assumed, looked up): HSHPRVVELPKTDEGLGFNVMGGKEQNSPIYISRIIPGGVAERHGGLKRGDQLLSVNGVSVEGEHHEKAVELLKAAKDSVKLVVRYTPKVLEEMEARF
# T8: LRRC7, Q96NW7
# T8 sequence (Q96NW7 1440-1537, limits assumed, looked up): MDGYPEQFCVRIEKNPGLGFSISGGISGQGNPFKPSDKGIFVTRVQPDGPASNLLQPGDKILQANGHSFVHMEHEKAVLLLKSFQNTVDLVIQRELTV
# T9: PARD3B_1, Q8TEW8
# T9 sequence (Q8TEW8 196-299, limits assumed, looked up): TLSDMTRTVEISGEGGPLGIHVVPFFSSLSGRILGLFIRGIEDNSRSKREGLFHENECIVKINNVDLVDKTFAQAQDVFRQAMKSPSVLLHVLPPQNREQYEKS
# T10: PCLO, Q9Y6V0
# T10 sequence (Q9Y6V0 4491-4600, limits assumed, looked up): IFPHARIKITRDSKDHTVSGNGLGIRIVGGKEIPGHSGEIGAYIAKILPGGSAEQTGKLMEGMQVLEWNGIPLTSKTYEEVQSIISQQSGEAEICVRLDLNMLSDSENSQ
# T11: TIAM2, Q8IVF5
# T11 sequence (Q8IVF5 885-986, limits assumed, looked up): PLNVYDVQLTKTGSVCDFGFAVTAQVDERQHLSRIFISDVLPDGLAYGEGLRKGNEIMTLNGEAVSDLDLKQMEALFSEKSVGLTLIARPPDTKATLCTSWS
# B1: KARS1, Q15046 (peptide)
# chain: LESTTVGTSV
# B2: NCF1, P14598 (peptide)
# chain: STKRKLASAV
# Molecular target: T1, APBA1_1, Q02410
# Experiment: holdup assay
# Design: key: below the threshold = too weak to quantify, mostly under pKd 3.1 to 4
# Details: plain residues with an end cap or a label only (N-terminal biotin on a linker: ado-ado)
row,Binder,pKd
1,B1,below the threshold
2,B2,below the threshold

# Molecular target: T2, APBA1_2, Q02410
# Experiment: holdup assay
# Design: key: below the threshold = too weak to quantify, mostly under pKd 3.1 to 4
# Details: plain residues with an end cap or a label only (N-terminal biotin on a linker: ado-ado)
row,Binder,pKd
1,B1,4.69
2,B2,3.88

# Molecular target: ARHGEF12, Q9NZN5-2
# Experiment: holdup assay
# Design: key: below the threshold = too weak to quantify, mostly under pKd 3.1 to 4
# Details: plain residues with an end cap or a label only (N-terminal biotin on a linker: ado-ado)
# Chain of ARHGEF12, Q9NZN5-2 (Q9NZN5 other isoform, or with tags, fused parts or gaps): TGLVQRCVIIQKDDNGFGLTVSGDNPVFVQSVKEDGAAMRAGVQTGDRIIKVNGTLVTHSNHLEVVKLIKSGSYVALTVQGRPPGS
row,Binder,pKd
1,B1,4.03
2,B2,3.79

# Molecular target: DLG2_2, Q15700
# Experiment: holdup assay
# Design: key: below the threshold = too weak to quantify, mostly under pKd 3.1 to 4
# Details: plain residues with an end cap or a label only (N-terminal biotin on a linker: ado-ado)
# Chain of DLG2_2, Q15700 (Q15700 189-283): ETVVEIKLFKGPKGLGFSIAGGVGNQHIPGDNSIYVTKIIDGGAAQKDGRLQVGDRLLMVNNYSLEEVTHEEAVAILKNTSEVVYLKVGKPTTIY
row,Binder,pKd
1,B1,4.06
2,B2,4.16

# Molecular target: DLG5_1, Q8TDM6
# Experiment: holdup assay
# Design: key: below the threshold = too weak to quantify, mostly under pKd 3.1 to 4
# Details: plain residues with an end cap or a label only (N-terminal biotin on a linker: ado-ado)
# Chain of DLG5_1, Q8TDM6 (Q8TDM6 617-713): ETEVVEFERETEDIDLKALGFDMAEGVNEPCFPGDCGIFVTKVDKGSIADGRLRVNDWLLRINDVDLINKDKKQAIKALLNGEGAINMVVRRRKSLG
row,Binder,pKd
1,B1,below the threshold
2,B2,below the threshold

# Molecular target: FRMPD2_2, Q68DX3
# Experiment: holdup assay
# Design: key: below the threshold = too weak to quantify, mostly under pKd 3.1 to 4
# Details: plain residues with an end cap or a label only (N-terminal biotin on a linker: ado-ado)
# Chain of FRMPD2_2, Q68DX3 (Q68DX3 944-1038): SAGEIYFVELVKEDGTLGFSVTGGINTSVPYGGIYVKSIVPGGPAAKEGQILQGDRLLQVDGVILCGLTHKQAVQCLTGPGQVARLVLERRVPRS
row,Binder,pKd
1,B1,3.79
2,B2,below the threshold

# Molecular target: GOPC, Q9HD26
# Experiment: holdup assay
# Design: key: below the threshold = too weak to quantify, mostly under pKd 3.1 to 4
# Details: plain residues with an end cap or a label only (N-terminal biotin on a linker: ado-ado)
row,Binder,pKd
1,B1,below the threshold
2,B2,below the threshold

# Molecular target: T3, GRIP1_2, Q9Y3R0
# Experiment: holdup assay
# Design: key: below the threshold = too weak to quantify, mostly under pKd 3.1 to 4
# Details: plain residues with an end cap or a label only (N-terminal biotin on a linker: ado-ado)
row,Binder,pKd
1,B1,below the threshold
2,B2,below the threshold

# Molecular target: T4, GRIP1_3, Q9Y3R0
# Experiment: holdup assay
# Design: key: below the threshold = too weak to quantify, mostly under pKd 3.1 to 4
# Details: plain residues with an end cap or a label only (N-terminal biotin on a linker: ado-ado)
row,Binder,pKd
1,B1,below the threshold
2,B2,below the threshold

# Molecular target: T5, GRIP1_4, Q9Y3R0
# Experiment: holdup assay
# Design: key: below the threshold = too weak to quantify, mostly under pKd 3.1 to 4
# Details: plain residues with an end cap or a label only (N-terminal biotin on a linker: ado-ado)
row,Binder,pKd
1,B1,below the threshold
2,B2,below the threshold

# Molecular target: GRIP2_3, Q9C0E4
# Experiment: holdup assay
# Design: key: below the threshold = too weak to quantify, mostly under pKd 3.1 to 4
# Details: plain residues with an end cap or a label only (N-terminal biotin on a linker: ado-ado)
# Chain of GRIP2_3, Q9C0E4 (Q9C0E4 238-339): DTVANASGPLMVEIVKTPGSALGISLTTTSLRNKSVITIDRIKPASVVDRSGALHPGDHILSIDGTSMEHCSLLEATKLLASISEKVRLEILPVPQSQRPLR
row,Binder,pKd
1,B1,below the threshold
2,B2,below the threshold

# Molecular target: T6, HTRA4, P83105
# Experiment: holdup assay
# Design: key: below the threshold = too weak to quantify, mostly under pKd 3.1 to 4
# Details: plain residues with an end cap or a label only (N-terminal biotin on a linker: ado-ado)
row,Binder,pKd
1,B1,below the threshold
2,B2,below the threshold

# Molecular target: Inadl_2, Q8NI35
# Experiment: holdup assay
# Design: key: below the threshold = too weak to quantify, mostly under pKd 3.1 to 4
# Details: plain residues with an end cap or a label only (N-terminal biotin on a linker: ado-ado)
# Chain of Inadl_2, Q8NI35 (Q8NI35 238-335): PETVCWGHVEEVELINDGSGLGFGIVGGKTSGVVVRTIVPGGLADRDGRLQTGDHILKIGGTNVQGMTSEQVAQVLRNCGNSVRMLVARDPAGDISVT
row,Binder,pKd
1,B1,below the threshold
2,B2,below the threshold

# Molecular target: Inadl_8, Q8NI35
# Experiment: holdup assay
# Design: key: below the threshold = too weak to quantify, mostly under pKd 3.1 to 4
# Details: plain residues with an end cap or a label only (N-terminal biotin on a linker: ado-ado)
# Chain of Inadl_8, Q8NI35 (Q8NI35 1425-1530): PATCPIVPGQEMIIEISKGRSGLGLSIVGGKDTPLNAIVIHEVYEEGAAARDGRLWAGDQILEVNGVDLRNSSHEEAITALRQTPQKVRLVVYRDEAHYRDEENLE
row,Binder,pKd
1,B1,4.15
2,B2,4.46

# Molecular target: Inadl_9, Q8NI35
# Experiment: holdup assay
# Design: key: below the threshold = too weak to quantify, mostly under pKd 3.1 to 4
# Details: plain residues with an end cap or a label only (N-terminal biotin on a linker: ado-ado)
# Chain of Inadl_9, Q8NI35 (Q8NI35 1530-1615): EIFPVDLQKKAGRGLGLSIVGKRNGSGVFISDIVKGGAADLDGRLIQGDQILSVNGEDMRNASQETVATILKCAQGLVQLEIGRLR
row,Binder,pKd
1,B1,3.67
2,B2,below the threshold

# Molecular target: T7, LIN7A, O14910
# Experiment: holdup assay
# Design: key: below the threshold = too weak to quantify, mostly under pKd 3.1 to 4
# Details: plain residues with an end cap or a label only (N-terminal biotin on a linker: ado-ado)
row,Binder,pKd
1,B1,below the threshold
2,B2,below the threshold

# Molecular target: T8, LRRC7, Q96NW7
# Experiment: holdup assay
# Design: key: below the threshold = too weak to quantify, mostly under pKd 3.1 to 4
# Details: plain residues with an end cap or a label only (N-terminal biotin on a linker: ado-ado)
row,Binder,pKd
1,B1,below the threshold
2,B2,below the threshold

# Molecular target: MAGI2_2, Q86UL8
# Experiment: holdup assay
# Design: key: below the threshold = too weak to quantify, mostly under pKd 3.1 to 4
# Details: plain residues with an end cap or a label only (N-terminal biotin on a linker: ado-ado)
# Chain of MAGI2_2, Q86UL8 (Q86UL8 410-522): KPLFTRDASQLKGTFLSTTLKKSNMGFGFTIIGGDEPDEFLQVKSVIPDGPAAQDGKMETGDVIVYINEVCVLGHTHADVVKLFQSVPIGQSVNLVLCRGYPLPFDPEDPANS
row,Binder,pKd
1,B1,below the threshold
2,B2,5.44

# Molecular target: NHERF2_2, Q15599
# Experiment: holdup assay
# Design: key: below the threshold = too weak to quantify, mostly under pKd 3.1 to 4
# Details: plain residues with an end cap or a label only (N-terminal biotin on a linker: ado-ado)
# Chain of NHERF2_2, Q15599 (Q15599 142-238): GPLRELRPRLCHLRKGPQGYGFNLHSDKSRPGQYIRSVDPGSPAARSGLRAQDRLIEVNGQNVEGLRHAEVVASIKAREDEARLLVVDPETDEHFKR
row,Binder,pKd
1,B1,below the threshold
2,B2,below the threshold

# Molecular target: NOS1, P29475
# Experiment: holdup assay
# Design: key: below the threshold = too weak to quantify, mostly under pKd 3.1 to 4
# Details: plain residues with an end cap or a label only (N-terminal biotin on a linker: ado-ado)
# Chain of NOS1, P29475 (P29475 9-101): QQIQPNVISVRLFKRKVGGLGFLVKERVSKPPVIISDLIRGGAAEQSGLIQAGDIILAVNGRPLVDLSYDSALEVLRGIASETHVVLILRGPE
row,Binder,pKd
1,B1,3.86
2,B2,4.07

# Molecular target: T9, PARD3B_1, Q8TEW8
# Experiment: holdup assay
# Design: key: below the threshold = too weak to quantify, mostly under pKd 3.1 to 4
# Details: plain residues with an end cap or a label only (N-terminal biotin on a linker: ado-ado)
row,Binder,pKd
1,B1,below the threshold
2,B2,below the threshold

# Molecular target: PARD3_3, Q8TEW0
# Experiment: holdup assay
# Design: key: below the threshold = too weak to quantify, mostly under pKd 3.1 to 4
# Details: plain residues with an end cap or a label only (N-terminal biotin on a linker: ado-ado)
# Chain of PARD3_3, Q8TEW0 (Q8TEW0 582-685): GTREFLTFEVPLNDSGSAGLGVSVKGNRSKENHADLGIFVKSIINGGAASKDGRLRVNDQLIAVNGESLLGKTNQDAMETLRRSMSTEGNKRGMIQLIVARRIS
row,Binder,pKd
1,B1,below the threshold
2,B2,below the threshold

# Molecular target: T10, PCLO, Q9Y6V0
# Experiment: holdup assay
# Design: key: below the threshold = too weak to quantify, mostly under pKd 3.1 to 4
# Details: plain residues with an end cap or a label only (N-terminal biotin on a linker: ado-ado)
row,Binder,pKd
1,B1,below the threshold
2,B2,below the threshold

# Molecular target: PDZRN4_1, Q6ZMN7
# Experiment: holdup assay
# Design: key: below the threshold = too weak to quantify, mostly under pKd 3.1 to 4
# Details: plain residues with an end cap or a label only (N-terminal biotin on a linker: ado-ado)
# Chain of PDZRN4_1, Q6ZMN7 (Q6ZMN7 213-318): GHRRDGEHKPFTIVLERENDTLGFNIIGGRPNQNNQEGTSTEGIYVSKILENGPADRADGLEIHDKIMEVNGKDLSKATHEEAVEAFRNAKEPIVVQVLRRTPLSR
row,Binder,pKd
1,B1,4.29
2,B2,below the threshold

# Molecular target: PICK1, Q9NRD5
# Experiment: holdup assay
# Design: key: below the threshold = too weak to quantify, mostly under pKd 3.1 to 4
# Details: plain residues with an end cap or a label only (N-terminal biotin on a linker: ado-ado)
# Chain of PICK1, Q9NRD5 (Q9NRD5 17-115): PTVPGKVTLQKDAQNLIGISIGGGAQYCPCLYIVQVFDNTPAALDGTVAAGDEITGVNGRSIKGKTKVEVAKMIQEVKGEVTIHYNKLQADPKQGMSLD
row,Binder,pKd
1,B1,below the threshold
2,B2,below the threshold

# Molecular target: T11, TIAM2, Q8IVF5
# Experiment: holdup assay
# Design: key: below the threshold = too weak to quantify, mostly under pKd 3.1 to 4
# Details: plain residues with an end cap or a label only (N-terminal biotin on a linker: ado-ado)
row,Binder,pKd
1,B1,4.05
2,B2,3.75
